Results on 16 molecules are retold here after patent publication US20240043504A1 (published 2024).

Residue numbers refer to the chain shown, from its start. Where “and” joins values, the source holds several entries; their conditions need not be identical. Equal entries are not always repeated.

B1: mAb11006 (antibody, V domains shown)
VH: EVQLVESGGGLVQPGGSLRLSCAASGFIVSRNYMSWVRQAPGKGLEWVSVIYSGGSTFYADSVKGRFTISRHNSKNTLYLQMNSLKAEDTAVYYCARELRGYFDYWGQGTLVTVSS
VL: DIQLTQSPSFLSASVGDRVTITCWASQGISSYLAWYQQKPGKAPKLLIYAASTLQSGVPSRFSGSGSGTEFTLTISSLQPEDFATYYCQLLNSYPYTFGQGTKLEIK
B2: mAb10933 (antibody, V domains shown)
VH: QVQLVESGGGLVKPGGSLRLSCAASGFTFSDYYMSWIRQAPGKGLEWVSYITYSGSTIYYADSVKGRFTISRDNAKSSLYLQMNSLRAEDTAVYYCARDRGTTMVPFDYWGQGTLVTVSS
VL: DIQMTQSPSSLSASVGDRVTITCQASQDITNYLNWYQQKPGKAPKLLIYAASNLETGVPSRFSGSGSGTDFTFTISGLQPEDIATYYCQQYDNLPLTFGGGTKVEIKR
B3: mAb10934 (antibody, V domains shown)
VH: not shown
VL: B2 VL with T30W, L33I, A50D, E55K, G77S, Y91H, N93D, L96P, G100Q
B4: mAb10987 (antibody, V domains shown)
VH: QVQLVESGGGVVQPGRSLRLSCAASGFTFSNYAMYWVRQAPGKGLEWVAVISYDGSNKYYADSVKGRFTISRDNSKNTLYLQMNSLRTEDTAVYYCASGSDYGDYLLVYWGQGTLVTVSS
VL: QSALTQPASVSGSPGQSITISCTGTSSDVGGYNYVSWYQQHPGKAPKLMIYDVSKRPSGVSNRFSGSKSGNTASLTISGLQSEDEADYYCNSLTSISTWVFGGGTKLTVLG
B5: mAb10989 (antibody, V domains shown)
VH: QVQLVQSGAEVKKPGASVKVSCKASGYIFTGYYMHWVRQAPGQGLEWMGWINPNSGGANYAQKFQGRVTLTRDTSITTVYMELSRLRFDDTAVYYCARGSRYDWNQNNWFDPWGQGTLVTVSS
VL: B4 VL with G31T, Y51F, K55N, N62D, S82A, N91S, L93F, S95T, I96S, W99V
B6: mAb10956 (antibody, V domains shown)
VH: EVQLVESGGGLVQPGGSLRLSCAASGLTVSSNYMSWVRQAPGKGLEWVSVIYSGGSTFYADSVKGRFTISRDNSKNTLYLQMNSLRAEDTAVYYCARDLIKYGMDVWGQGTTVTVSS
VL: not shown
B7: mAb10957 (antibody, V domains shown)
VH: B6 VH with L27V, Y79F, A87I, I100G, K101P
VL: DIQLTQSPSFLSASVGDRVTITCRASQGISSYLAWYQQKPGKAPKLLIYAASTLQSGVPSRFSGSGSGTQFILTISSLQPEDFATYYCQQLNSYPGFTFGPGTKVDIKR
B8: mAb10967 (antibody, V domains shown)
VH: EVQLVESGGGLVQPGGSLRLSCAASGFTVSSNYMSWVRQAPGKGLEWVSVIYPGGSTFYADSVKGRFTISRDNSKNTLYLQMNSLRAEDTAVYYCARDQRDFAWGQGTLVTVSS
VL: B2 VL with T30S, A50D, L96P, G100Q, K103R, V104L
B9: mAb10954 (antibody, V domains shown)
VH: EVQLVESGGGLVQPGGSLRLSCAASGITVSSNYMSWVRQAPGKGLEWVSLIYSGGSTYYADSVKGRFTISRDNSKNTLYLQMNSLRVEDTAVYYCARDHGMAAAGYNYWGQGTLVTVSS
VL: B2 VL with T30N, N31K, A50D, S76N, G77S, I83F, Y87F, L96P, T97A, G100Q
B10: mAb10934 (antibody, V domains shown)
VH: not shown
VL: B2 VL with T30W, L33I, A50D, E55K, G77S, Y91H, N93D, L96P, G100Q
B11: mAb10933 (antibody, V domains shown)
VH: B2 VH
VL: B2 VL
B12: mAb10954 (antibody, V domains shown)
VH: B9 VH
VL: B2 VL with T30N, N31K, A50D, S76N, G77S, I83F, Y87F, L96P, T97A, G100Q
B13: mAb10986 (antibody, V domains shown)
VH: EVQLVESGGGLVQPGGSLRLSCAASEFTVSSNYMSWVRQAPGKGLEWVSVIYSGGSTFYADSVKGRFTISRDNSKNTLYLQMNSLRAEDTAVYYCARALPYGDLHFDYWGQGTLVTVSS
VL: QSVLTQPPSVSGAPGQRVTISCTGSSSNIGTGYDVHWYQQLPGTAPKLLIYGNTNRPSGVPDRFSGSKSGTSASLAITGLQAEDEADYYCQSYDSSLSDSYVFGTGTKVTVLG
B14: mAb10936 (antibody, V domains shown)
VH: QVQLVESGGGVVQPGRSLRLSCAASGFTFRNYGMHWVRQAPGKGLEWVSVIWYDGSNRYYADSVKGRFTISRDTSKNTLYLQMNSLRAEDTAVYYCARDPPITGTTGGDAFDIWGQGTMVTVSS
VL: not shown
B15: mAb10984 (antibody, V domains shown)
VH: EVQLVESGGGLVQPGGSLRLSCAASGLTVNRNYMSWVRQAPGKGLEWVSLIYSGGSTYYADSVKGRFTISRDNSKNTLYLQMNSLRLEDTAVYYCARGELGIPYGMDVWGQGTTVTVSS
VL: QSVLTQPPSVSAAPGQKVTISCSGSSSNIGNNYVSWYQQLPGTAPKLLIYDNNKRPSGIPDRFSGSKSGTSATLGITGLQTGDEADYYCGTWDSSLSAGVFGGGTKLTVLG
B16: mAb10920 (antibody, V domains shown)
VH: QVQLVESGGGVVQPGRSLRLSCAASGFTFSYYGMHWVRQAPGKGLEWVAVIWYDGSNKFYADSVKGRFTISRDNSKNTLYLQMNSLRAEDTAVYYCAAARPGYYYGMDVWGQGTTVTVSS
VL: DIQMTQSPSSLSASVGDRVTITCRASQGISNYLAWFQQKPGKAPNSLIYAASSLQRGVPSKFSGSGSGTDFTLTISSLQPEDFATYYCQQYNSYPRTFGQGTKVEIKR

The first assay addresses SARS-CoV-2 Spike Protein (RBD)(R319-F541).mFc (mAb10621-L1) (SARS-CoV-2). The assay is described as follows: Luminex bead binding, supernatant.
As to B1, the “Binding signal (MFI)” value was 2870 MFI.

A further assay has as its target SARS-CoV-2 Spike Protein (RBD)(R319-F541).hFc (mAb10622-L1) (SARS-CoV-2). Description: Luminex bead binding, supernatant.
In the case of B1, the “Binding signal (MFI)” value worked out at 3980 MFI.

The next assay addresses full-length SARS-CoV-2 spike protein (amino acids M1-T1273 of accession number YP_009724390.1) on Ju (SARS-CoV-2, UniProt P0DTC2 14-1273). Description: cell-based or functional assay.
Regarding B2, the “ADCP EC50 [M], Jurkat/hCD20/SARS-CoV-2 Spike cells” value came to 5.79e-12 M and the “ADCP Max (% ADCP), Jurkat/hCD20/SARS-CoV-2 Spike cells” value is 53.4%.

Take B3: the “ADCP EC50 [M], Jurkat/hCD20/SARS-CoV-2 Spike cells” value came to 2.72e-12 M and the “ADCP Max (% ADCP), Jurkat/hCD20/SARS-CoV-2 Spike cells” value worked out at 40.1%.

Regarding B4, the “ADCP EC50 [M], Jurkat/hCD20/SARS-CoV-2 Spike cells” value worked out at 6.33e-12 M and the “ADCP Max (% ADCP), Jurkat/hCD20/SARS-CoV-2 Spike cells” value is 56.7%.

Regarding B5, the “ADCP EC50 [M], Jurkat/hCD20/SARS-CoV-2 Spike cells” value amounted to 4.86e-12 M and the “ADCP Max (% ADCP), Jurkat/hCD20/SARS-CoV-2 Spike cells” value stood at 56%.

Another assay concerns the target receptor binding domain (RBD) portion of the SARS-CoV-2 Spike protein (amino acids Arg319-Phe541) ex (SARS-CoV-2).
Assay: not given
Consider B3, for which the 50% inhibitory concentration (IC50) was 0.066 nM and 0.0597 nM.

On to B5, for which the IC50 is 0.0591 nM and 0.0428 nM.

A further assay addresses Human SARS Coronavirus Spike S1 Subunit Protein (His Tag) (Sino 40150-V08B1) (Human SARS Coronavirus, UniProt P59594 14-667). Description: Luminex bead binding, supernatant.
B6: the “Binding signal (MFI)” value is 16 MFI.

On to B7, for which the “Binding signal (MFI)” value stood at 16 MFI.

With B8, the “Binding signal (MFI)” value worked out at 21 MFI.

With B9, the “Binding signal (MFI)” value amounted to 15 MFI.

The next assay concerns the target SARS-CoV-2 spike protein (S-wt, Wuhan-Hu-1, NCBI Accession Number MN908947.3) on VSV pseudoparticles (SARS-CoV-2, UniProt P0DTC2 14-1273). Description: cell-based or functional assay.
For the molecule B10, the “IC50 (M), neutralization” value worked out at 5.44e-11 M.

Take B11: the “IC50 (M), neutralization” value came to 4.28e-11 M.

For the molecule B12, the “IC50 (M), neutralization” value came to 9.22e-11 M.

As for B13, the “IC50 (M), neutralization” value turned out to be 9.91e-11 M.

With B14, the “IC50 (M), neutralization” value amounted to 1.11e-10 M.

Consider B15, for which the “IC50 (M), neutralization” value was found to be 9.73e-11 M.

As for B16, the “IC50 (M), neutralization” value worked out at 2.64e-10 M.

In a further assay the target is Bt-SARS-CoV-2 Spike Protein (RBD)(R319-F541).mFc (mAb10621-L2) (SARS-CoV-2). The assay is described as follows: Luminex bead binding, supernatant.
Turning to B1, the “Binding signal (MFI)” value amounted to 1400 MFI.
